Assay results published in patent US20220144922A1 (Adimab, published 2022).

B1: ADI-15005 (antibody, V domains shown)
VH: QVQLVESGPALVKPTQTLTLTCSFSGFSLTTRRMCVSWIRQTPGKALEWLARIDWDDDKDYSTSLKTRLTISKDTSKNQVVLTMTNMDPVDTATYYCARTHIYDSSGYYLYYFDYWGQGTLVTVSS
VL: DIVLTQSPSSLSASIGDRVTITCRASQTIASYLNWYQQKPGKAPELLIYAATNLQSGVPSRFSGSGSGTDFTLTISSLRPEDFASYYCQQSYSSPWTFGQGTKVDIK
notes: IgG; also called Antibody Number 124
B2: ADI-15612 (antibody, V domains shown)
VH: EVQLLESGGDLVQPGGSLRLSCAASGFPFSSHSMNWVRQAPGKGLEWISYISGGSDTIQYADSVKGRFTISRDNVKNSLYLQMNSLRAEDTAVYYCARDQYIWNYVEPLDYWGQGTLVTVSS
VL: DIQMTQSPSSLSASVGDRVTITCRASQDISYYLGWYQQKAGKAPKLLIYAVSNLQTGVPSRFSGSGSGTDFTLTISSLQPEDFATYYCLQDHTCPWTFGQGTKVEIK
notes: IgG
B3: ADI-15619 (antibody, V domains shown)
VH: QVQLVQSGAEAKKPGASVKVSCTASGYTFTNDINWVRQATGQGLEWMGWMNPNNGHTGYGQKFEDRVTLTRDSSRSTAYMELSSLRFEDTAVYYCVYNFWSDSSVSWGRGTLVTVSS
VL: QSVVTQPPSVSGAPGQSVAISCTGSSSNIGPAYDVHWYQQTPGAAPKLLIYGDSNRPSGVPDRFSTSKSGTSASLAITGLQAEDEADYYCQSFDSSLRGYVFGTGTKVTVL
notes: IgG
B4: ADI-15626 (antibody, V domains shown)
VH: EVQLVESGAEVKKPGSSVKVSCKASGGTFSSYEISWVRQAPGQGLEWMGGINPMFGAANYAQKFQDRVTIIADKSTGTVYMELSSLRSEDTALYYCARERYPSTDDYYRSGRYYGEWGQGTTVTVSS
VL: ETTLTQSPSTLSASVGDRVTITCRASQSIRSWLAWYQQKPGKAPKLLIYRASTSDSGVPSRFSGSGSGTEFTLTISSLQPDDFAIYYCQQYNSIPVTFGQGTKLEIK
notes: IgG
B5: ADI-15627 (antibody, V domains shown)
VH: EVQLVESGGGVVQPGRSLRLSCAASGFTFSDYAMHWVRQAPGKGLEWVAVIWYDGGNKYYADSAKGRFTISRDNSKNTLYLQMNSLRAEDTAVYYCAKDRGSIWNVGDGMDVWGQGTTVTVSS
VL: QPVLTQPPSVSVAPGQTARVTCGGNNIGAKSVHWYQQKPGQAPVLVVDDDTDRPSGIPERFSGSNSGNTATLTISRVEAGDEADYYCQVWDASIGPLYVFGTGTKLTVL
notes: IgG; also called Antibody Number 192
B6: ADI-15561 (antibody, V domains shown)
VH: QVQLVQSGAEVKKPGSSVKVSCKASGGTFSSYAINWVRQAPGQGLEWMGGIIPAFGTTIYAQRFQDRVTITADKSTSTAYMELRSLRSEDTAVYYCARSPPFWSDYSRGWFDPWGQGTLVTVSS
VL: ETTLTQSPSALSASVGDRVTITCRASQTISGYLNWYQQKPGKAPKLLIYAASSLQSGVPSRFSGSSAGTDFTLSISNLQPEDFATYYCQQSYTTPWTFGQGTKVEIK
notes: IgG; also called Antibody Number 132
B7: ADI-15629 (antibody, V domains shown)
VH: EVQLVESGGGLVQPGGSLRLSCAASGFTFSDFAMSWVRQAPGKGLEWVSLIKSSDYAYYADSVRGRFTISRDNSKNTLYLRMNSLRADDTAVYYCAKDADFWSGDSYNGGYNFDSWGQGTLVTVSS
VL: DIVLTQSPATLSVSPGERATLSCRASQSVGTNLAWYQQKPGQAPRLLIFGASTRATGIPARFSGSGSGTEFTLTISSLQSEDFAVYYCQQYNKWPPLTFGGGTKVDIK
notes: IgG
B8: ADI-15633 (antibody, V domains shown)
VH: QVQLVQSGAEVKKPGESLKISCKGSGYTFRMYWIGWARLLPGKGLEWIGIIYPGDSDTRYNPSLQGQVTMSVDKSINTAYLQWGSLKASDSAIYYCARLRLHPQSGMDVWGQGTLVTVSS
VL: NFMLTQPHSVSESPGKTVVISCTRSSGSIAGYYVQWYQHRPGSSPTTVIYEDDQRPSGVPDRFSGSVDSSSNSASLTISGLKTEDEADYYCQSYDNAIWVFGGGTKLTVL
notes: IgG
B9: ADI-15640 (antibody, V domains shown)
VH: QVQLVESGPALVKPTQTLTLTCAFSGFSLTTRGMSVSWIRQPPGKALEWLARIDWDDDKYYSTSLKTRLTISKDTSKNQVVLTMSNMDPVDTATYYCARASLYDSGGYYLFFFDYWGQGTLVTVSS
VL: DIVMTQSPSSLSASVGDRVTITCRASQSIGSYLNWYQQKPGKVPKLLIYAASNLQGGVPSRFRGSGSGTDFTLTISNLQPEDFASYYCQLSYSSLWTFGQGTKVEIK
notes: IgG; also called Antibody Number 204
B10: ADI-15641 (antibody, V domains shown)
VH: QVQLVESGGGVVQPGRSLRVSCAASGFDFSNYAMHWVRQAPGKGLEWVALISYDGNNKVYADSVKGRFTVSRDNSKNTLYLQMNSLRPEDTAVIYCAKDGYLAPDFWGQGTLVTVSS
VL: QSVLTQPASVSGSPGQSIIISCTGTSSDVGEYDYVSWYQHHPHKAPKLIIYEVSNRPSGVSNRFSGSKSGNTASLTISGLQAEDEADYYCSSYTSSSGQAFGTGTKVTVL
notes: IgG; also called Antibody Number 205
B11: ADI-15645 (antibody, V domains shown)
VH: EVQLLESGGGLVQPGGSLRLSCAASGFTFSSYAMSWVRQIPGKGLEWVSTINISGGSTYYADSVKGRFTISRDNSRDTVFLQMNGLRAEDTALYYCARGYHIDWFDFWGQGTLVTVSS
VL: DIVLTQTPSSVSASVGDRVTITCRASQDIGSWLAWYQQKPGKAPQFLIYAASQLQSGVPSRFSGSGSGTDFTLTISSLQPEDFATYYCQQAKSLPRTFGGGTKVDIK
notes: IgG
B12: ADI-15646 (antibody, V domains shown)
VH: EVQLLESGGGLIQPGGSLRLSCGASGFTVTGNYMHWVRQAPGKGLEWVSVIYAGSSTYYADSVRGRFTISRDKARNTLFLQMNRLRAEDTAVYYCARAGVVGEDRSGWYGPDYFHGLDVWGQGTTVTVSS
VL: ETTLTQSPGTLSLSPGERATLSCRASQSIRNNYLAWYQQKPGQPPRLLIYGESRRATGIPGRFSGSGSGTDFTLTISSLEPEDFAVYYCQQYGGSPYTFGQGTKVDIK
notes: IgG; also called Antibody Number 210
B13: ADI-15651 (antibody, V domains shown)
VH: EVQLVESGPALVKPTQTLTLTCTVSGGVERMSVSWVRQPPGKALEWLARIDWDDDKYYNTFLKTRLTISKGTSKNEVVLTMTNMDPEDTAIYYCARTNRYDKSGYYLYYLDYWGQGTLVTVSS
VL: DIQMTQSPSSLSASVGDKVTITCRASQTIASYVNWYQQHPGKAPKLLIYLASRLQSGAPSRFSGSGSGTDFTLTILNLQPEDFATYYCQQSYSSFFTFGPGTKVEIK
notes: IgG
B14: ADI-15658 (antibody, V domains shown)
VH: EVQLVESGGGLVQPGRSLRLSCVTSGFGFDDYAMHWVRQAPGKGLEWVSGIGWNSGGIGYADSVKGRFSISRDNAKNSLYLQMNSLRPEDTAFYYCVKDGTPIAVAGYFEYWGQGTLVTVSS
VL: SYELTQPPSASGTPGQRVTISCSGGRSNIGNNYVYWYQQLPGTAPKLLIYRHDQRPSGVPDRFSGSKSGTSASLAINGLRSEDEADYFCAVWDDSLSCYVFGAGTKLTVL
notes: IgG
B15: ADI-15659 (antibody, V domains shown)
VH: QVQLVQSGAEVKKPGSSVKVSCKASGGTFSTYGISWVRQAPGQGLEWMGRVIPMFGTATYAQKFQDRVTITADKATSTAYMELNSLRSDDTAVYYCARCPPFEGVRPPWFDPWGQGTLVTVSS
VL: SYELTQPPSVSVAPGRTAKITCGGYNIGNKRVHWYRQRPGQAPVLIVYDNADRPSGIPERFSGSNSGNTATLTISNVAAGDEADYHCQVWETSSDHPVFGGGTKLTVL
notes: IgG; also called Antibody Number 223
B16: ADI-15573 (antibody, V domains shown)
VH: QVQLVQSGAEVKKPGASVKISCKTSGYTFTSSVISWVRQAPGQGLEWVGWITGHRSSTNYAQRLQGRVTMTTDTSTSTAYMELRSLRSDDTAVYYCARADGGSGSYYSAWGQGTLVTVSS
VL: SYELTQPPSASVAPGKTARISCGGNNIGTKSVHWYQQKPGQAPVLVIYHDSHRPSGIPERFSGSNSGNTATLTISRVEAGDEADYYCQLWDSSSDSHVFGTGTKLTVL
notes: IgG; also called Antibody Number 143
B17: ADI-15576 (antibody, V domains shown)
VH: QVQLVQSGAAVKKPGESLKISCKGFGYSFTKYWIGWVRQVPGKGLEWIGIISPTDSNTRYSPSFRGQVTMSADKSISAAYLQWSSLKASDTAMYYCARHSSPYSSGWYGDTYFFDSWGQGTLVTVSS
VL: QPVLTQPPSASGTPGQRVTISCSGSNSNIGTNTVNWYQQLPGTAPKVLIHNNNERPSGVPDRFSGSKSGTSASLAISGLQSEDEADYYCAAWDDSLRGYVFGTGTKVTVL
notes: IgG; also called Antibody Number 146

Each binder was assayed against T1, prefusion-stabilized RSV F ectodomain (DS-Cav1), subtype B (respiratory syncytial virus subtype B) (assay: BLI, IgG on sensor).
T1 construct: extracellular domain; also called Prefusion subtype B
Experimental: (§1) IgG binding to DS-Cav1 and FA FP was determined by BLI measurements using a FortéBio Octet HTX instrument (Pall Life Sciences). […] Data was analyzed using the ForteBio Data Analysis Software 7. The data was fit to a 1:1 binding model to calculate an association and dissociation rate, and KD was calculated using the ratio kd/kₐ.

Binder | Kd [nM]
B1 | 1.4
B2 | 0.157
B3 | 6.91
B4 | 3.39
B5 | 1.61
B6 | 8.62
B7 | 0.36
B8 | 0.896
B9 | 1.49
B10 | 0.136
B11 | 4.6
B12 | 2.62
B13 | 2.08
B14 | 1.81
B15 | 11.1

Each binder was assayed against T2, postfusion RSV F ectodomain (F ΔFP), subtype A (respiratory syncytial virus subtype A, UniProt P03420 26-109; P03420 147-524) (assay: BLI, IgG on sensor).
T2 construct: extracellular domain; also called Postfusion subtype A
Experimental: as §1

Binder | Kd [nM]
B1 | 0.237
B2 | 0.416
B3 | 1.76
B4 | 0.546
B5 | 0.158
B6 | 0.591
B7 | 0.228
B8 | 0.104
B9 | 0.169
B10 | 0.161
B11 | 0.367
B12 | 0.318
B13 | 0.23
B14 | 0.18
B15 | 1.13
B16 | 0.198
B17 | 0.237

These binders were tested against T3, postfusion RSV F ectodomain, subtype B (respiratory syncytial virus subtype B) (assay: BLI, IgG on sensor).
T3 construct: extracellular domain; also called Postfusion subtype B
Experimental: as §1

Binder | Kd [nM]
B1 | 0.253
B2 | 0.353
B3 | 2.21
B4 | 0.653
B5 | 0.137
B6 | 1.08
B7 | 0.213
B8 | 0.111
B9 | 0.196
B10 | 0.136
B11 | 0.352
B12 | 3.18
B13 | 0.453
B14 | 0.169
B15 | 3.66
B16 | 0.199
B17 | 0.179

These binders were tested against RSV F protein of subtype B strain 18537, on virus (respiratory syncytial virus subtype B …, UniProt P13843 26-574) (assay: cell-based or functional assay).

Binder | Neut IC50 (ug/ml) subtype B [µg/mL]
B1 | 2.53
B2 | 0.164
B3 | 0.377
B4 | > 10
B5 | 2.42
B6 | 22.4
B7 | 0.088
B8 | > 10
B9 | 4.82
B10 | 0.483
B11 | > 10
B12 | > 10
B13 | 3.29
B14 | > 10
B15 | > 10
B16 | 1.67
B17 | 9.86

Each binder was assayed against RSV F protein of subtype A strain A2, on virus (respiratory syncytial virus subtype A …, UniProt P03420 26-574) (assay: cell-based or functional assay).

Binder | Neut IC50 (ug/ml) subtype A [µg/mL]
B1 | 2.16
B2 | 0.053
B3 | 1.45
B4 | 14.2
B5 | 2.17
B6 | 5.63
B7 | 0.085
B8 | 12.8
B9 | > 10
B10 | 0.184
B11 | > 10
B12 | 0.846
B13 | 1.6
B14 | 6.25
B15 | > 10
B16 | 6.25
B17 | 6.08
